Substitutions are numbered along the chain they refer to.

Results on ten molecules are retold here after patent US20150337051A1 (MORPHOTEK, published 2015).

The labels stand for the following.
T1: TEM-1 in a native state on aortic smooth muscle cells (AoSMC) (UniProt Q9HCU0 18-757, limits assumed)
T1 construct: whole, on cells; also called tumor endothelial marker 1; endosialin
T1 sequence (looked up): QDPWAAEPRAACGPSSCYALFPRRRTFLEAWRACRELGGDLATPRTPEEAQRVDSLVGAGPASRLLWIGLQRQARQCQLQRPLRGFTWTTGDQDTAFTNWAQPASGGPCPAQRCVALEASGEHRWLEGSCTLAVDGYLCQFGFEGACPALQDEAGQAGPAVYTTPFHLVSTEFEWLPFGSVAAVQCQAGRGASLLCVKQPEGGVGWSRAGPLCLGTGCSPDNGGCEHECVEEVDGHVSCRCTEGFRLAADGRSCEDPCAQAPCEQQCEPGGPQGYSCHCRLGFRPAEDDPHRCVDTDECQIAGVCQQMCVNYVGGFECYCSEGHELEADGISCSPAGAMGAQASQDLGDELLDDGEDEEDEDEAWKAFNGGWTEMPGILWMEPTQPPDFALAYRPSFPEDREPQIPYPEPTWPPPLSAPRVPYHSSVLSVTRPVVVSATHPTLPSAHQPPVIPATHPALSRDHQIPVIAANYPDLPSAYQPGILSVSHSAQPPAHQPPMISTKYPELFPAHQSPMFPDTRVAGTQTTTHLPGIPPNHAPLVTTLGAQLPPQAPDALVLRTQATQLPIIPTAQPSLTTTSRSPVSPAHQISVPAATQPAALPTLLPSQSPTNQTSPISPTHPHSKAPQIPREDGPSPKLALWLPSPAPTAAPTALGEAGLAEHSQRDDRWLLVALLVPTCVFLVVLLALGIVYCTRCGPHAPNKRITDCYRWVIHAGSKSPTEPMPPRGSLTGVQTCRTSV

T2: Biotinylated TEM1-Fc (murine, UniProt Q9HCU0 18-687 (human entry), limits assumed, biotinylated (sites not given))
T2 construct: Ligand captured on the streptavidin sensor surface in the Biacore analysis; also called rTEM-1-Fc; not shown: Fc portion of a murine gamma heavy chain
T2 sequence (looked up): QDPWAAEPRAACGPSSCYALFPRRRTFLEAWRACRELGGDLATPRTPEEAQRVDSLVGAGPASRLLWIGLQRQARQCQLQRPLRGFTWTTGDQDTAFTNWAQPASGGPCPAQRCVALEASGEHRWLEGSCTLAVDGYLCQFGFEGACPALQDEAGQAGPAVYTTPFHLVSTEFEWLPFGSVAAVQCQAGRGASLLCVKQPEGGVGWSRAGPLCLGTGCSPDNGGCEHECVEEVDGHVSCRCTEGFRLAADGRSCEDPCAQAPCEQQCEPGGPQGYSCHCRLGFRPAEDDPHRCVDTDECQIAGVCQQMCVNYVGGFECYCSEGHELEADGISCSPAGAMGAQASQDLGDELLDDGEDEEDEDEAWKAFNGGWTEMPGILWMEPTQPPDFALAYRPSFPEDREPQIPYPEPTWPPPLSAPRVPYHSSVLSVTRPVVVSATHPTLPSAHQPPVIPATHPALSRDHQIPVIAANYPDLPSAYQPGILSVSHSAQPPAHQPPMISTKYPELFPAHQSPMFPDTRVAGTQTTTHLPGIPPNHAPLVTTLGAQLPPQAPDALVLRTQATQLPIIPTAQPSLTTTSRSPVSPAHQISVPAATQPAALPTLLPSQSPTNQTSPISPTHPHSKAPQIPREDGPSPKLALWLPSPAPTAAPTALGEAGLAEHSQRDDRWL

B1: Antibody 9G5 (antibody, V domains shown)
VH: EVKLEESGGGLVQPGMSVKLSCATSGFTFSDYWMEWVRQAPGKGLEWVAEIRNKLNNYVTNYGKPVRGRFTISRDDSKSIVYLQVNSIRSEDTGIYYCTRIQRVITTGEYFDYWGQGVMVTVSS
VL: DIQMTQSPSLLSASEGDRVTLSCKASQNIYKYLNWYQQKLGEAPKLLIYNINNLQTGIPSRFSGSGSGTDFTLTISSLQPEDVATYYCYQYNSGRAFGGGTKLELK
notes: Rat monoclonal antibody from hybridoma, IgG1/kappa; also called 9G5.F2.C1.F4; anti-TEM-1 clone 9G5
B2: Antibody 7D3 (antibody, V domains shown)
VH: EVQLVESGGGLVQPKGSLKLSCAASGFDFKTYAMSWVRQAPGKGLDWIVTISTKGHNYATLYADSVKERFTISRDDSQSMVYLQMNNLKTEDTALYYCTVAGYNFDYWGQGVMVTVSS
VL: DVVLTQTPSILSATIGQSVSISCRSSQSLLDSDGNTYLYWFLQRPGQSPQRLIYLVSNLGSGVPNRFSGSGSGTDFTLKISGVEAGDLGVYYCMQATHAPFTFGSGTKLEIK
notes: Rat monoclonal antibody from hybridoma, IgG2a/kappa; also called 7D3.F5.E8.D8; ATCC PTA-12538
B3: Antibody 10H8 (antibody, V domains shown)
VH: QVQLKESGPGLVQPSQTLSLTCTVSGFSLTNYNIHWVRQPPGKGLEWMGAIWSGGSADYDSALKSRLSISRDTSKSQVFLKMDNLQTEDTAIYYCTRDQLGGWYFDFWGPGTKVTVSS
VL: DIVMTQTPSSQAVSAGEKVTMSCTSGQSLLYNENNKNYLAWYQLKPGQSPRLLIYWASTRESGVPDRFIGSGSGTYFTLTISSVQAEDLAVYYCQQYFRFPRTFGGGTKLELK
notes: Rat monoclonal antibody from hybridoma, IgG2a/kappa; also called 10H8.D7.E3; ATCC PTA-12546
B4: Antibody 14G3 (antibody, V domains shown)
VH: EVQLVEFGGGLVQPGRSLKLSCAASGFTFSDYNLAWVRQAPKKGLEWVATISYNGSEIYYRDSVKGRFTISRDNAKNTLYLQMDSLRSEDTATYYCARHWREYYSSYSSYVMDAWGQGASVTVSS
VL: DIVMTQTPSSQAVSAGAKVTLSCKSSQSLLYNKNKKNYLAWYQQKPGQSPKLLIYWASTRESGVPDRFIGSGSGTDFTLTISSVQAEDLAIYYCQQYYTFPTFGAGTKLELK
notes: Rat monoclonal antibody from hybridoma, IgG2a/kappa; also called 14G3.H4.F11.H7; ATCC PTA-12539
B5: Antibody 7H12 (antibody, V domains shown)
VH: EVQLVESGGGLVQPGRSMILSCAASGFTFSNFDMAWVRQAPKMGLEWVATITYDGSRTNYRDSVKGRFTISRDSAKNTLYLQMDSLTSEDTATYYCARHGSSYYWFFDFWGPGTMVTVSS
VL: ETVMTQSPTSMPTSIGERVTLNCKASQSVGINVDWYQQTPGQSPKLLIYTASNRHTGVPDRFAGSGSGRDFTLTISNVEAEDLVVYYCLQYGSLPFTFGAGTKLELK
notes: Rat monoclonal antibody from hybridoma, IgG1/kappa; also called 7H12.H5.E7; ATCC PTA-12545
B6: Antibody 11D1 (antibody, V domains shown)
VH: EVQLVESDGGLVQPGRSLKLSCAASGFSFSDYYMAWVRQAPTKGLEWVATISYDGSGSYYRDSVKGRFTVSRDNAKTTLYLQMDSLRSEDTATYYCARGGGLDYWGQGVMVTVSS
VL: DNVLTQAPLAVSVTPGESASISCRSSKSLLSIEGINSLYWYLQKPGKSPQLLLFRMSNLASGVPDRFSGSGSETDFTLKISQVETEDVGVYYCAQFLEFPFTFGSGTKLEIK
notes: Rat monoclonal antibody from hybridoma, IgG2a/kappa; also called 11D1.G10.F8; ATCC PTA-12541
B7: Antibody 15F8 (antibody, V domains shown)
VH: EVQLVESGGGLVQPGRSMKLSCSASGFTFRNYYMAWVRQAPTRGLEWVASTGTGGDFTYYRDSVKGRFTISRDTAENTLYLQMDSLRSEDTATYYCARAYGYFDYWGQGVKVTVSS
VL: DIVLTQSPTTLSVTPGETVSLSCRASHSVGTNLHWYQQKPNESPRLLIKYVSQSNSGIPSRFSASGSGTDFTLNIKNVEFNDVSSYFCQQTQSWPLTFGAGTKLEIK
notes: Rat monoclonal antibody from hybridoma, IgG2a/kappa; also called 15F8.G6.B4; ATCC PTA-12540
B8: Antibody 16D2 (antibody, V domains shown)
VH: B7 VH with T28I, R43K, N77S, R87K
VL: B7 VL with P40T, N77D, N81D, A100S
notes: Rat monoclonal antibody from hybridoma, IgG2a/kappa; also called 16D2.H12.E7.G9; ATCC PTA-12544
B9: Antibody 9A5 (antibody, V domains shown)
VH: B7 VH with S23A, T53S, K111R
VL: B7 VL with P40T, Y50D, V51A, N55M, N81D, A100S
notes: Rat monoclonal antibody from hybridoma, IgG2a/kappa; also called 9A5.G12.B10.F8.F6; ATCC PTA-12542
B10: Antibody 15D10 (antibody, V domains shown)
VH: QVQLMESGPGLVQPSETLSLTCTVSGFSLTNYNIHWVRQPPGKGLEWMGLMWSGGNTDYNSALKSRLTISRDTSKNQVFLKMNSLQSEDTTTYYCARDSGYGEGRLDYWGQGVMVTVSS
VL: DIVLTQAPLSVSVTPGESASISCRSSKSLLGSKGINFLYWYLQKPGKSPQLLIYRMSNLASGVPDRFSGSGSETDFILKISKVETEDVGVYYCAQFLEYPNSFGAGTKLELK
notes: Rat monoclonal antibody from hybridoma, IgG2a/kappa; also called 15D10.G4.C12; ATCC PTA-12543

The first assay deals with T1, TEM-1 in a native state on aortic …. Briefly: flow cytometry on AoSMC, 10 µg/mL antibody, FITC goat anti-rat secondary; cells only 2.5, secondary only 3.5. The procedure: FACS analyses were also performed using aortic smooth muscle cells (AoSMC) and HUVEC cells. Cells were harvested using cell dissociation buffer (Invitrogen, #13151-014), washed twice in PBS and re-suspended at 50,000 cells/100 μL FACS buffer (PBS+2% FBS) in a round bottom 96 well plate. Cells were incubated for 1 hour on ice with the described rat TEM-1-specific antibodies at a concentration of 10 μg/mL, washed and then incubated with FITC-conjugated goat-anti-rat secondary antibodies (dilution 1:100) (Southern Biotech). Prior to analysis, cells were labeled with 7-AAD (BD Biosciences) to allow for the exclusion of nonviable cells. Cells were analyzed on an EasyCyte Flow Cytometer (Guava Technologies). The data in Table 6 indicate that all of the tested antibodies bind TEM-1 in a native state.
Background: A flow cytometer gives signals particle by particle.
Regarding B1, the “Geometric mean of resulting FACS plot” value was determined as 57.4.

With B2, the “Geometric mean of resulting FACS plot” value amounted to 63.4.

B3: the “Geometric mean of resulting FACS plot” value is 52.7.

In the case of B4, the “Geometric mean of resulting FACS plot” value stood at 94.2.

Turning to B5, the “Geometric mean of resulting FACS plot” value turned out to be 59.9.

On to B6, for which the “Geometric mean of resulting FACS plot” value was 46.3.

In the case of B7, the “Geometric mean of resulting FACS plot” value turned out to be 72.5.

For B8, the “Geometric mean of resulting FACS plot” value is 98.

Take B9: the “Geometric mean of resulting FACS plot” value stood at 89.9.

Consider B10, for which the “Geometric mean of resulting FACS plot” value worked out at 86.4.

In another assay the target is T2, Biotinylated TEM1-Fc. Briefly: Biacore SPR, biotinylated TEM1-Fc on streptavidin surface, antibody as analyte, 1:1 model. The procedure:
Biacore analyses were also performed to determine the affinity of selected isolated TEM-1-specific rat antibodies. For these studies streptavidin-coated sensor surfaces were generated by injecting CAP reagent for 5 minutes at a flow rate of 2 μl/min. Biotinylated TEM1-Fc (10 μg/ml) was injected onto the streptavidin coated sensor surface for 20 sec (Fc2, RL=˜50 RU), 40 sec (Fc3, RL=˜100 RU), and 60 sec (Fc4, RL=˜150 RU) at a flow rate of 25 μl/minute. Rat anti-TEM-1 MAbs were injected for 300 seconds at 0.5 nM, 2 nM, 5 nM, 20 nM, and 50 nM concentrations and the dissociations were monitored for 30 minutes at a flow rate of 25 μl/minute. The sensor surface was regenerated by injecting a CAP kit regeneration solution for 120 sec at a flow rate of 25 μl/minute. The sensorgrams were analyzed using 1:1 binding model.
(In general: In SPR one partner is held on a chip, and binding of the other changes the refractive index at the surface.)
As usually defined, the Kd is a measure of binding affinity in units of concentration. A low value points to a tighter complex. As usually defined, the koff is the rate constant with which the complex falls apart. A high value points to fast dissociation. One may read the kon as the second-order rate constant of association. The low end stands for slow association, the high end for fast association. Molecule B2 showed a Kd of 2.03 pM, a koff of 1.34e-07 s⁻¹ and an association rate constant (kon) of 65900 M⁻¹ s⁻¹.

Consider B5, for which the dissociation constant (Kd) stood at 0.0279 pM, the koff worked out at 3.01e-08 s⁻¹ and the on-rate constant (kon) came to 1.08e+06 M⁻¹ s⁻¹.

In turn, B6 showed a Kd of 240 pM, a koff of 9.57e-05 s⁻¹ and an on-rate constant (kon) of 400000 M⁻¹ s⁻¹.

In turn, B7 yielded a dissociation constant Kd of 0.222 pM, a koff of 1.65e-07 s⁻¹ and a kon of 742000 M⁻¹ s⁻¹.

The molecule B8 showed a Kd of 0.0131 pM, a dissociation rate constant (koff) of 1.07e-08 s⁻¹ and an on-rate (kon) of 810000 M⁻¹ s⁻¹.

Regarding B9, the affinity, expressed as Kd, was 21.6 pM; the koff amounted to 1.84e-05 s⁻¹; the kon is 850000 M⁻¹ s⁻¹.

As for B10, the affinity, expressed as Kd, was 106 pM; the koff turned out to be 0.000105 s⁻¹; the on-rate (kon) turned out to be 993000 M⁻¹ s⁻¹.
